According to patent publication US20150272885A1 (STC UNM, published 2015):
No end group written: not given here.

Columns and labels:
[1] = molecular target: T1, recombinant human Met (rhMet), fused to the Fc domain of human IgG (human, UniProt P08581 25-932); assay: phage display selection on rhMet-Fc, five rounds; phage ELISA on rhMet
T1 construct: also called MET receptor; hepatocyte growth factor receptor; not shown: Fc domain of human IgG
Method: Peptides at 1×10¹¹ pfu/mL were incubated with 100 nM of recombinant human Met (rhMet), fused to the Fc domain of human IgG, for 1 hour at room temperature. […] Bound phage clones were eluted with a low-pH buffer (0.2 M glycine with 1 mg/mL BSA, pH 2.2), and elutants were amplified via infection of the host bacterium (E. coli ER2738).
1×10¹¹ pfu/mL were incubated with 100 nM of recombinant human Met (rhMet), fused to the Fc domain of human IgG, for 1 hour at room temperature. […] Bound phage clones were eluted with a low-pH buffer (0.2 M glycine with 1 mg/mL BSA, pH 2.2), and elutants were amplified via infection of the host bacterium (E. coli ER2738). […] Peptides specific for protein A and protein G were avoided by alternating rounds of selection between protein A-coated magnetic particles and protein G-coated magnetic particles. After five rounds of selection, DNA was recovered from 40 individual clones and sequenced using the −96 gIII primer provided with the Ph.D.™-7 kit.

ephrin B2 (EB2) on cells [2] = molecular target: T2, ephrin B2 (EB2) on cells (human, UniProt P52799 28-333); assay: flow cytometry, EB2-positive HEK 293 against EB2-negative parental CHO-K1
T2 construct: whole, on cells; The species is stated as human for the CHO-K1 transfectants; also called human ephrin B2

[3] = molecular target: Met (hepatocyte growth factor receptor) on Hep3B cells (human) (UniProt P08581); assay: flow cytometry saturation binding on cytochalasin D-treated Hep3B cells, 1 hour at 37 C; specific binding = total minus binding with saturating unlabeled HGF; apparent Kd of the multivalent particle
ephrin B2 (EB2) on cells [4] = molecular target: T2, ephrin B2 (EB2) on cells; assay: phage display selection on CHO-K1 cells expressing human EB2, with counter-selection on parental CHO-K1 and on CHO-K1 expressing ephrin B1

T1 sequence (P08581 25-932 limits assumed): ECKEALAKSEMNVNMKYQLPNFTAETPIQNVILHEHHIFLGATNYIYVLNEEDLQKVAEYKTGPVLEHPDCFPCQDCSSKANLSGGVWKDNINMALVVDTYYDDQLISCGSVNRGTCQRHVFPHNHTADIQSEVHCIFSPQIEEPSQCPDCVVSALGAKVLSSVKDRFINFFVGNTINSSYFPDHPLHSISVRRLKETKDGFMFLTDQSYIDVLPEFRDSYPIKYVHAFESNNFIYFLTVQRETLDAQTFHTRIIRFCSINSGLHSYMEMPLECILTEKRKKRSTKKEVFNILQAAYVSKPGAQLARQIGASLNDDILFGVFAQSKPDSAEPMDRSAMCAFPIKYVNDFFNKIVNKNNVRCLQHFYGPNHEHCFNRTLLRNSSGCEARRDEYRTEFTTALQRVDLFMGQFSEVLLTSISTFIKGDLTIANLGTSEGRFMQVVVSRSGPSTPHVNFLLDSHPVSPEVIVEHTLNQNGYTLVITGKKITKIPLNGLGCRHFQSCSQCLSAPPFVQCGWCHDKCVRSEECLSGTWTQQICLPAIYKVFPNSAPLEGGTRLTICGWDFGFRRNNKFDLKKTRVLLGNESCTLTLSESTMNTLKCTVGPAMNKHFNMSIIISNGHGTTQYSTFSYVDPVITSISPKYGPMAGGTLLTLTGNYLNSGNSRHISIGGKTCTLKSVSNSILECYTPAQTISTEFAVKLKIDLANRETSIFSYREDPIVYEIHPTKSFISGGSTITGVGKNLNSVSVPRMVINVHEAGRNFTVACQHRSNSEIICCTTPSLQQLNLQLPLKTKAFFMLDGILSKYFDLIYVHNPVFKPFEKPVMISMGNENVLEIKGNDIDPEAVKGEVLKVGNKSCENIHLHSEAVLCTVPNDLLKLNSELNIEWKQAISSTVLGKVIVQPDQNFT
T2 sequence (P52799 28-333): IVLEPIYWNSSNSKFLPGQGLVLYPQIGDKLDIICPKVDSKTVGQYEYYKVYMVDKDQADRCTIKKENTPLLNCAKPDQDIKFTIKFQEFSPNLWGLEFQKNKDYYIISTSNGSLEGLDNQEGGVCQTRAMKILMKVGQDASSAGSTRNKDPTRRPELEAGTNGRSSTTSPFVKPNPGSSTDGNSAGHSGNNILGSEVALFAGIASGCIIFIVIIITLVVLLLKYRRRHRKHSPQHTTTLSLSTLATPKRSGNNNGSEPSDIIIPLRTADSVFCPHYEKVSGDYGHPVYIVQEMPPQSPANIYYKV
Met (hepatocyte growth factor receptor) on Hep3B cells (human), sequence (P08581 25-1390): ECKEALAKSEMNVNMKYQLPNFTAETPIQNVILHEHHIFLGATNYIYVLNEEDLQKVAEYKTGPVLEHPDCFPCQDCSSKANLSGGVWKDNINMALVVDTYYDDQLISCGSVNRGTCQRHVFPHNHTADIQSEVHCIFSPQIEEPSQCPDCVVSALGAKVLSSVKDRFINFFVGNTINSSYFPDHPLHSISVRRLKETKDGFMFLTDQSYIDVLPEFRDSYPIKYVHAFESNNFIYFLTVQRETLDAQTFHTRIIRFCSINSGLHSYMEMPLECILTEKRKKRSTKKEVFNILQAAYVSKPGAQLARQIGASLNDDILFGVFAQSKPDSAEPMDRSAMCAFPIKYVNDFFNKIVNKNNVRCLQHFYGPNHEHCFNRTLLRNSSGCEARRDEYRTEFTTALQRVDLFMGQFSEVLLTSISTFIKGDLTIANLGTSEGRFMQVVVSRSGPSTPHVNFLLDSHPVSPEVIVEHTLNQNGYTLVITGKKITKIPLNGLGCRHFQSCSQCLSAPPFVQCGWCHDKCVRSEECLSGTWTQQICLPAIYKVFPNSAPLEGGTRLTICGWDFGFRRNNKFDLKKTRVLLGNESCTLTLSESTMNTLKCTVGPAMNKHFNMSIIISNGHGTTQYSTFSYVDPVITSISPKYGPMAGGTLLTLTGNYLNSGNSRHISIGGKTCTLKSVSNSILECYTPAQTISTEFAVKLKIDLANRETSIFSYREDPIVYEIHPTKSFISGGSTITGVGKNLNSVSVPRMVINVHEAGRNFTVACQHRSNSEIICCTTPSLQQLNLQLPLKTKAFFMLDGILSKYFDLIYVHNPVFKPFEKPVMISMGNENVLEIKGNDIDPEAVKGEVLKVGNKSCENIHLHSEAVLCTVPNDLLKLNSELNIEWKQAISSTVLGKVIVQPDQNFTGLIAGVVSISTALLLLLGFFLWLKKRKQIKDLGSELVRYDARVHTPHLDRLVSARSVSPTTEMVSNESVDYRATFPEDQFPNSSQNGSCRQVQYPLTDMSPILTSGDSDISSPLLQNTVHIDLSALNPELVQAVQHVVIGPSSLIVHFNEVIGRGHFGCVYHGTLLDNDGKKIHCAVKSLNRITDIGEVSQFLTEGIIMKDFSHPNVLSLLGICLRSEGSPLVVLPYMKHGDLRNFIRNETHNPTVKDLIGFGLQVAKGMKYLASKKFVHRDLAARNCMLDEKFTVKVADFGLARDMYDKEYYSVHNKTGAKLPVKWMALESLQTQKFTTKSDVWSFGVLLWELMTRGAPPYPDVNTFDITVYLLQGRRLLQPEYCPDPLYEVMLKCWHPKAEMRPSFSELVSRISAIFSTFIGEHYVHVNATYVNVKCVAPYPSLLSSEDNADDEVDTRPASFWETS

Row | Binder | binding result [1] | other results
1 | TSPVALL (7-mer from Ph.D.-7 phage display, tested as a phage clone) [MET binding peptide TSPVALL (SEQ ID NO: 3)] | binds | –
2 | TGAILHP (other, not fully specified, Multivalent display on mesoporous silica nanoparticle-supported lipid bilayers; also called MSN-SLBs modified with 0.015 wt % of TGAILHP and 10 wt % PEG-2000) [TGAILHP-targeted MSN-SLBs, low peptide valency (0.015 wt % or ~5 peptides/particle)] | – | fold higher affinity for HEK 293 cells than for EB2-negative cells (parental CHO-K1) (ephrin B2 (EB2) on cells [2]): 1000 fold
3 | ASVHFPPC (peptide, not shown: small tags and cut ends, also: C-terminal Cys conjugated via sulfhydryl-to-amine crosslinker to DOPE in the protocell lipid bilayer) | – | Kd [3]: 1.05 nM
4 | TGAILHP (7-mer from phage display; It was selected on CHO-K1 cells expressing human ephrin B2, with counter-selection on parental CHO-K1 and on CHO-K1 expressing human ephrin B1; also called ephrin B2 targeting peptide) [TGAILHP peptide (SEQ ID NO: 18)] | – | binding result (ephrin B2 (EB2) on cells [4]): binds
5 | ASVHFPP (7-mer selected from the Ph.D.-7 phage display library; also called MC40 clone) [MC40 targeting peptide ASVHFPP (SEQ ID NO: 1)] | binds | –
6 | WPRLTNM (7-mer from Ph.D.-7 phage display, tested as a phage clone) [MET binding peptide WPRLTNM (SEQ ID NO: 5)] | binds | –
7 | IPLKVHP (7-mer from Ph.D.-7 phage display, tested as a phage clone) [MET binding peptide IPLKVHP (SEQ ID NO: 4)] | binds | –
8 | TATFWFQ (7-mer from Ph.D.-7 phage display, tested as a phage clone) [MET binding peptide TATFWFQ (SEQ ID NO: 2)] | binds | –
